For orientation: Kd means the free concentration of one partner at which half of the binding sites on the other are occupied at equilibrium, for simple one-to-one binding. As a reminder, the EC50 is the concentration that produces a half-maximal response.

Here are results for five molecules from patent US20050100919, “Nucleic acid-based detection” (Brandeis University, a Massachusetts corporation, published 2005).

The target of series [1] is T1, thrombin (UniProt P00734;P00734 P00734:328-363,P00734:364-622). Briefly: fluorescence change at 100 nM thrombin in TE.
Series [2] addresses T1, thrombin. Put plainly: fluorescence beacon titration, TE buffer, 24 C; estimated.
Series [3] has as its target T1, thrombin. Briefly: fluorescence change at 100 nM thrombin in TBB; not saturated at 250 nM.
Series [4] has as its target T1, thrombin. Put plainly: competition; affinity increase relative to G15D5d, filter binding competition in TE.
In series [5] the target is T1, thrombin. Briefly: fluorescence beacon titration, TE buffer (20 mM Tris-HCl, 1 mM EDTA, pH 7.5), 24 C; estimated.
The target in series [6] is factor IX (UniProt P00740 P00740:47-461). Briefly: specificity control; no effect on beacon fluorescence in TE. The conditions noted are these: tags: purchased from Enzyme Research Lab; label: 5'-fluorescein, 3'-DABCYL; alternate 5-bp stem-loop / G4. The method, then: Thrombin binding assay using a fluorescence spectrometer: The aptamers were diluted to a concentration of 10 uM in TBB or TE (20 mM Tris-HCl, 1 mM EDTA, pH7.5) and heated at 99° for three min and cooled down to room temperature prior to the experiment. The experiment was performed using 5-40 nM of aptamer in 2 ml. All of the fluorescence intensity measurements were performed at 24° C. The excitation wavelength was 495 nm and the emission was monitored at its peak, 516 nm (in TE) or 518 nm (in TBB). A small volume (0.5-3 μl) of thrombin (final concentration of 0-250 nM) was added and the change of emission was monitored.
factor IX, sequence (P00740 47-461, one chain of several): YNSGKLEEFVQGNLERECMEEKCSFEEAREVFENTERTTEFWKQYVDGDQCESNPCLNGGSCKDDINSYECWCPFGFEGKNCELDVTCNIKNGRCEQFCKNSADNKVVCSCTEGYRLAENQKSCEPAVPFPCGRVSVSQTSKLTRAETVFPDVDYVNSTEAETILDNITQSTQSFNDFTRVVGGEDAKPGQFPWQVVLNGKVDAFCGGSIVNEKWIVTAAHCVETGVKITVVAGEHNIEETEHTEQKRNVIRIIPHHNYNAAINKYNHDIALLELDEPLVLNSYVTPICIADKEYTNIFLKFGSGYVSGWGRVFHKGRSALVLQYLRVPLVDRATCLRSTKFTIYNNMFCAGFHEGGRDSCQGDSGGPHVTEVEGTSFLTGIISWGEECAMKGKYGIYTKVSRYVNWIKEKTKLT
To confirm the binding specificity of G15D5dMB, we used factor IX, which is a plasma serine protease, as is thrombin, and shares a sequence identity of 37% in the catalytic domain with thrombin.

Series [7] addresses T1, thrombin. Put plainly: fluorescence ratio at 100 nM thrombin in TBB; 0.7 in TE.
Series [8] has as its target T1, thrombin. Put plainly: half-maximum effect, fluorescence decrease, TBB (20 mM Tris-HCl, 140 mM NaCl, 5 mM KCl, 1 mM MgCl2, 1 mM CaCl2, pH 7.5).
For series [9], the target named is T1, thrombin. Briefly: competition; filter binding competition against radiolabeled G15D5d, TBB; displacement curve only in figure.

In series [1], CCAACCGGTTGGTGTGGTTGG (ssDNA) [G15D6dMB] registered an activity of 1.7 fold. The Kd in series [2] was 12 nM.

Consider CCAAGGTTGGTGTGGTTGG (ssDNA) [G15D4dMB], for which the activity in series [3] is 1.5 fold.

In the case of CCAACGGTTGGTGTGGTTGG (ssDNA) [G15D5dMB], the binding signal in [4] was around 6 fold. Further, the Kd in series [5] is 3 nM. For the same molecule, in series [1], the activity amounted to 2.3 fold. For the same molecule, the binding result in series [6] is reported as “no binding”.

For TTTTTGGTTGGTGTGGTTGG (ssDNA) [G15D5ndMB], the activity in [7] came out at 0.5 fold. In [8], the EC50 is around 80 nM.

With GGTTGGTGTGGTTGG (ssDNA) [G15D], the binding result in series [9] is listed as “binds”.
